Data on two substances can be found in patent US20030027764A1.

What all share (assay): cell-based or functional assay
For assay [1], the target named is daboiatoxin, the major PLA2 toxin of Daboia russelli siamensis venom (Daboia russelli siamensis).
The target in assay [2] is Bee venom (Apis melifera) PLA2 (Apis mellifera) (UniProt P00630).
Assay [3] concerns the target Taipoxin (Oxyuranus scutellatus PLA2) (Oxyuranus scutellatus) (UniProt P00614).

Chain of recombinant Python Antitoxic Factor (PAF), later renamed Phospholipase Inhibitor from Python (PIP), (Q9I8P7 20-201): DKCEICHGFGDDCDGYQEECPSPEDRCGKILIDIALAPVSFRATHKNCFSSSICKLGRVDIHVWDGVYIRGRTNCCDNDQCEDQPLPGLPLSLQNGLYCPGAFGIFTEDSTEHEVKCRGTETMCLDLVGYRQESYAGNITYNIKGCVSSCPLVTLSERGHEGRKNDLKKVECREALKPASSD
Chain of Bee venom (Apis melifera) PLA2 (Apis mellifera) (P00630 34-167): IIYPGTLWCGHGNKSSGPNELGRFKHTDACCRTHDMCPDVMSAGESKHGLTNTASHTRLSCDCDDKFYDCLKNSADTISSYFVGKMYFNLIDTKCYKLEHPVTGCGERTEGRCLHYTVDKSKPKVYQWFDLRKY
Chain of Taipoxin (Oxyuranus scutellatus PLA2) (Oxyuranus scutellatus) (P00614 whole entry, chain 1 of 3): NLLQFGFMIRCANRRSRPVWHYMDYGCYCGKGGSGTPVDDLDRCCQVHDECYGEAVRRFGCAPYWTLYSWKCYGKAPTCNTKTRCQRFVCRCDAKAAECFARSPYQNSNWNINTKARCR
Chain of Taipoxin (Oxyuranus scutellatus PLA2) (Oxyuranus scutellatus) (P00615 28-145, chain 2 of 3, further chain): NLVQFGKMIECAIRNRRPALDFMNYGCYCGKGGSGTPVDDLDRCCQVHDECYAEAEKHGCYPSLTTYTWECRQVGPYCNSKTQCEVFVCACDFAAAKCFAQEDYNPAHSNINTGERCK
Chain of Taipoxin (Oxyuranus scutellatus PLA2) (Oxyuranus scutellatus) (P00616 20-152, chain 3 of 3, further chain): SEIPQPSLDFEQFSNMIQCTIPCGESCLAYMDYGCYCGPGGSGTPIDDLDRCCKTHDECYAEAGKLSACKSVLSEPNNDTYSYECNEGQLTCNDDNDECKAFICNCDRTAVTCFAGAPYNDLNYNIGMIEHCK

In the case of anti-inflammatory peptide-2 from Sigma, the % Inhibition of paw oedema; DbTx (1 µg) + 100 µg AIP-2 in assay [1] was determined as 35.3%. Further, in assay [2], the % Inhibition of paw oedema; Bee venom PLA2 (1 µg) + 100 µg AIP-2 stood at 33.6%.
Regarding “recombinant Python Antitoxic Factor (PAF), later renamed Phospholipase Inhibitor from Python (PIP), (from UniProt Q9I8P7 20-201)”, in assay [1], the % Inhibition of paw oedema; DbTx (1 µg) + 50 µg PIP was found to be 89.2% and the % Inhibition of paw oedema; DbTx (1 µg) + 100 µg PIP came to 92.2%. For the same substance, in assay [2], the % Inhibition of paw oedema; Bee venom PLA2 (1 µg) + 50 µg PIP turned out to be 39.9% and the % Inhibition of paw oedema; Bee venom PLA2 (1 µg) + 100 µg PIP was 78.1%. Moreover, in assay [3], the % Neutralisation was 50%.
